The target in assay [1] is T1, ectodomain of murine βKlotho (F53 to L995 of SEQ ID NO: 218) with a C-terminal FLAG tag (murine, UniProt Q99N32 53-995).
T1 construct: Expressed in HEK293 cells and purified from culture media; also called βKlotho ectodomain; not shown: C-terminal FLAG tag
T1 sequence: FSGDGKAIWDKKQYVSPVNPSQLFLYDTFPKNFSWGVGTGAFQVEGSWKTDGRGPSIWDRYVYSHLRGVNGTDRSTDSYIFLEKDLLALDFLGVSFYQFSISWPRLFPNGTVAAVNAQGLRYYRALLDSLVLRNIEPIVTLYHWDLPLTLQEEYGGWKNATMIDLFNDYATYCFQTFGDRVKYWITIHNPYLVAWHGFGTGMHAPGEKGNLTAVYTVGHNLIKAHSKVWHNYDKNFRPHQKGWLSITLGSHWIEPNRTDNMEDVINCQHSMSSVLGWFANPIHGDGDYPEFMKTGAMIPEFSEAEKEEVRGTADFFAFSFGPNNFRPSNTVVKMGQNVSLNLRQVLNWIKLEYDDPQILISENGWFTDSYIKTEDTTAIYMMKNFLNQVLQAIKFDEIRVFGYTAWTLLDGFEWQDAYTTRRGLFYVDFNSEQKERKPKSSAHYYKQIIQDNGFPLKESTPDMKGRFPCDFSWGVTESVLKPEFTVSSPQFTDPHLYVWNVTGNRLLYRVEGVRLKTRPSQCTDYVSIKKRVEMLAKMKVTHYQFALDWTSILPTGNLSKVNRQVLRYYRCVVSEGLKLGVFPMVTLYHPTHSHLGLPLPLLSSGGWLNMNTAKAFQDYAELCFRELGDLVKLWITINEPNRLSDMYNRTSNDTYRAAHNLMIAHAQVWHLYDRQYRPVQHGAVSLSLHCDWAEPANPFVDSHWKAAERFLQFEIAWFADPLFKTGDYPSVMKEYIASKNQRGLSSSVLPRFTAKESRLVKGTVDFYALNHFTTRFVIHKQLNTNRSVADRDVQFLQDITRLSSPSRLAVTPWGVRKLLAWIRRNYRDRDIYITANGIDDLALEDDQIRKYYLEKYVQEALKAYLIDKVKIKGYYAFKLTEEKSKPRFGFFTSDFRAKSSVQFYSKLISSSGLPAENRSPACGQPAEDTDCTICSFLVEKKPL
The assay can be described thus: size-exclusion chromatography of the binary complex (FIG. 1A). The protocol:
Size-exclusion chromatography experiments were performed on a HiLoad™ 16/60 Superdex™ 200 prep grade column (GE Healthcare) mounted on an ÄKTApurifier (GE Healthcare). […] Sample injection volume was 0.9 to 2.0 ml, and the flow rate was 1.0 ml min⁻¹. Protein retention times were determined by absorbance at 280 nm. The column was calibrated with ferritin (440 kDa), immunoglobulin G (150 kDa), albumin (69.3 kDa), ovalbumin (44.3 kDa), carbonic anhydrase (28.8 kDa), and ribonuclease A (13.7 kDa). The void volume was determined using blue dextran 2,000, and the column volume was measured with acetone. To examine ternary complex formation between FGF21, FGFR1c, and βKlotho, 2.72 μmol of the 1:1 binary complex of FGFR1c ligand-binding domain and βKlotho ectodomain were mixed with 9.25 μmol of FGF21, and the mixture was applied to the size-exclusion column. The retention time of the FGFR1c-βKlotho complex alone served as a reference point. To examine ternary complex formation between FGF19, FGFR4, and βKlotho, 2.46 μmol of the 1:1 binary complex of FGFR4 ligand-binding domain and βKlotho ectodomain were mixed with 8.51 μmol of FGF19, and the mixture was applied to the size-exclusion column. The retention time of the FGFR4-βKlotho complex alone served as a reference point. […]

Assay [2] has as its target T1, ectodomain of murine βKlotho (F53 to …). The experiment in a line: SPR competition; FGF19 or FGF21 immobilized, fixed βKlotho ectodomain mixed with increasing peptide (FIGS. 5B, 5F). The text has this: Residues that are identical between FGF19 and FGF21 are shaded gray. Note that 40% of these residues map to the most C-terminal sequence. […] FGF19 was immobilized on a biosensor chip, and mixtures of a fixed concentration of βKlotho ectodomain with increasing concentrations of FGF19^C-tail were passed over the chip. […] Mixtures of a fixed concentration of βKlotho ectodomain with increasing concentrations of FGF21^C-tail were passed over a biosensor chip onto which FGF19 had been immobilized. […] FGF21 was immobilized on a biosensor chip, and mixtures of a fixed concentration of βKlotho ectodomain with increasing concentrations of FGF21^C-tail were passed over the chip. […] Mixtures of a fixed concentration of βKlotho ectodomain with increasing concentrations of FGF19^C-tail were passed over a biosensor chip onto which FGF21 had been immobilized. […] The data shown in FIGS. 5B-G are representative of two to three independent experiments.

Assay [3] deals with FGFR1c endogenously expressed by HEK293 cells transiently transfected with murine βKlotho (UniProt P11362 22-822). The experiment in a line: cell-based or functional assay.
For assay [4], the target named is T2, 1:1 binary complex of FGFR1c ligand-binding domain and βKlotho ectodomain (human; murine, UniProt P11362 142-365; Q99N32 53-995).
T2 construct: also called FGFR1c-βKlotho complex; FGFR1c-βKlotho; not shown: C-terminal FLAG tag
T2 sequence 1: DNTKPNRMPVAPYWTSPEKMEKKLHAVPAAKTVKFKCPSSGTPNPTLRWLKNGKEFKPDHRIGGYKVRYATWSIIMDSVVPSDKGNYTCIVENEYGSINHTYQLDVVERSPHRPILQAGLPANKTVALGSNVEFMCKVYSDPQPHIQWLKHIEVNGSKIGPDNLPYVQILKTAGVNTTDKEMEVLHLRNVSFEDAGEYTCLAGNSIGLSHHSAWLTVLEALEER
T2 sequence 2: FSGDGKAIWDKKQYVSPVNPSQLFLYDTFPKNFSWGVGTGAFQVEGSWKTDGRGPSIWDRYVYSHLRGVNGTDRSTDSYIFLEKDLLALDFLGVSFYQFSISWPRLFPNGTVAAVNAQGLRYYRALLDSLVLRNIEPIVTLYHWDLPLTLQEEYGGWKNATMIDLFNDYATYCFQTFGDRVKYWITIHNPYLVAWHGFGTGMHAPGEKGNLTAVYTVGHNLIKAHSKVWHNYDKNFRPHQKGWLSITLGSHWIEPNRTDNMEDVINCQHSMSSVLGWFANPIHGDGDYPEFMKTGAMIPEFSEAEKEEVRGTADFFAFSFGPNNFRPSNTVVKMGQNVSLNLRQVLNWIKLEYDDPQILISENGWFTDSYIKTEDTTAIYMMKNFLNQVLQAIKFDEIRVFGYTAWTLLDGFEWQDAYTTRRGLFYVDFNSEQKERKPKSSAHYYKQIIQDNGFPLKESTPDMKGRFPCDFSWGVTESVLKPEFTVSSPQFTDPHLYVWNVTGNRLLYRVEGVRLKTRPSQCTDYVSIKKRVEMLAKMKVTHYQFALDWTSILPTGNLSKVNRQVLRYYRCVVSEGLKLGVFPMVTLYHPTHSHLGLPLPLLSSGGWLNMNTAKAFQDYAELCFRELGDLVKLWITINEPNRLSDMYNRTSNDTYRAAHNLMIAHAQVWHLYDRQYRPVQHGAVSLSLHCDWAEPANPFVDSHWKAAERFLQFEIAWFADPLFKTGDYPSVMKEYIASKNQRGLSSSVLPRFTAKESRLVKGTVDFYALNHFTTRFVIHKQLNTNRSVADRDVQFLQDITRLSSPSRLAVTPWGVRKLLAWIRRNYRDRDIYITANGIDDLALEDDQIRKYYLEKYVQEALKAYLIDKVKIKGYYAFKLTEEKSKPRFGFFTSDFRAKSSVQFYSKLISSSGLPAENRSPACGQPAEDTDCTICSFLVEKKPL
The experiment in a line: SPR competition; FGF21 immobilized, FGFR1c-βKlotho complex mixed with the chimera (FIGS. 15E, 15F). From the text:
In the experiments shown in FIGS. 15A-15C, increasing concentrations of either an FGF21/FGF19 chimera or wild-type FGF21 were mixed with a fixed concentration of FGFR1c-βKlotho complex, and the mixtures were passed over a FGF21 chip. […] The data shown in FIGS. 15A-15C are representative of two to three independent experiments. Included in FIGS. 15E-15F are SPR sensorgrams obtained from injecting mixtures of the FGF21²⁹⁻¹⁹⁰/FGF19¹⁹⁷⁻²¹⁶ chimera with the FGFR1c-βKlotho complex over a FGF21 chip.
(§1) SPR experiments were performed on a Biacore 2000 instrument (Biacore AB), and all the protein-protein and protein-peptide interactions were studied at 25° C. in HBS-EP buffer (10 mM HEPES-NaOH, pH 7.4, 150 mM NaCl, 3 mM EDTA, 0.005% (v/v) polysorbate 20). Proteins were immobilized by amine coupling on flow channels of research grade CM5 chips (Biacore AB). Proteins were injected over a CM5 chip at a flow rate of 50 μl min⁻¹, and at the end of each protein injection (180 s), HBS-EP buffer (50 μl min⁻¹) was flowed over the chip to monitor dissociation for 180 s.

The target of assay [5] is T1, ectodomain of murine βKlotho (F53 to …). The experiment in a line: SPR competition; FGF21 immobilized, fixed βKlotho ectodomain mixed with increasing chimera (FIGS. 7B, 7C). Here is the method: Increasing concentrations of FGF21 were mixed with a fixed concentration of βKlotho ectodomain, and the mixtures were passed over a FGF21 chip. […] Increasing concentrations of FGF21²⁹⁻¹⁹⁰/FGF19¹⁹⁷⁻²¹⁶ chimera were mixed with a fixed concentration of βKlotho ectodomain, and the mixtures were passed over a FGF21 chip. […] The figure was created from the data shown in FIGS. 7A-B, which are representative of two independent experiments.
as §1, with “s. In experiments where βKlotho binding to FGFR was analyzed, the chip surface was then regenerated by injecting 50 μl of 2.0 M NaCl in 10 mM sodium/potassium phosphate, pH 6.5. In experiments where α/βKlotho binding to FGF19/21/23 or binding of the FGFR1c-βKlotho complex to FGF21 was studied, 2.0 M NaCl in 10 mM sodium acetate, pH 4.5 was used for chip regeneration. […]” for “s.”

Assay [6] deals with T2, 1:1 binary complex of FGFR1c …. The experiment in a line: SPR competition; FGF21 immobilized, complex mixed with the mutant at a molar ratio of 1:2 or 1:6 (FIG. 14B). The protocol:
Increasing concentrations of FGF21 were mixed with a fixed concentration of FGFR1c-βKlotho complex, and the mixtures were passed over a FGF21 chip. […] In the experiments shown in FIGS. 14B-14C, FGFR1c-βKlotho complex was mixed with either mutant FGF21 or wild-type FGF21 at a molar ratio of 1:2 or 1:6, and the mixtures were injected over a FGF21 chip. The data shown in FIGS. 14A-14C are representative of two to three independent experiments.
as §1, with “s. In experiments where βKlotho binding to FGFR was analyzed, the chip surface was then regenerated by injecting 50 μl of 2.0 M NaCl in 10 mM sodium/potassium phosphate, pH 6.5. In experiments where α/βKlotho binding to FGF19/21/23 or binding of the FGFR1c-βKlotho complex to FGF21 was studied, 2.0 M NaCl in 10 mM sodium acetate, pH 4.5 was used for chip regeneration.” for “s.”

Sequence of FGFR1c endogenously expressed by HEK293 cells transiently transfected with murine βKlotho (P11362 22-822): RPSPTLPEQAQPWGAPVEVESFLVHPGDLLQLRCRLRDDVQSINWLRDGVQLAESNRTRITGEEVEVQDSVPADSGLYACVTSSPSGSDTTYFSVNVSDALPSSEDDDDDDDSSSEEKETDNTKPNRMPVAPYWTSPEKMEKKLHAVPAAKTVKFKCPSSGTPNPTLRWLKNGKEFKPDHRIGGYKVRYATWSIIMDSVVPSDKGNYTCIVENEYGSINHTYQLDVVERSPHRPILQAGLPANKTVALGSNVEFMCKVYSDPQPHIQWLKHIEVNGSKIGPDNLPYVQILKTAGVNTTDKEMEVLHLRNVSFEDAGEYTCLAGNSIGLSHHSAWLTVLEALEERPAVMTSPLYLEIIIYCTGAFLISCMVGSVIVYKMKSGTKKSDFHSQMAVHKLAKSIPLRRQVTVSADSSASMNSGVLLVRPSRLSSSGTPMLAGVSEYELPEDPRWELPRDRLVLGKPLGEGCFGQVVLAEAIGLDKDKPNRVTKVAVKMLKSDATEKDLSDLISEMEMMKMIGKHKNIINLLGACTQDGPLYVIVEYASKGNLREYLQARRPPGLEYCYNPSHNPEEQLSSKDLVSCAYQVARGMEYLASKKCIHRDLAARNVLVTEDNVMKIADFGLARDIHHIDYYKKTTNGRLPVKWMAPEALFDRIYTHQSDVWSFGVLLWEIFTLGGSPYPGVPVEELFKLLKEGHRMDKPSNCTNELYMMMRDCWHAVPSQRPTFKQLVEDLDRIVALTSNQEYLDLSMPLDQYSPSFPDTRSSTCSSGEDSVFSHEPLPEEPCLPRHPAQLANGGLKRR

B1: ligand-binding domain of human FGFR1c (D142 to R365 of SEQ ID NO: 221) (receptor)
chain: DNTKPNRMPVAPYWTSPEKMEKKLHAVPAAKTVKFKCPSSGTPNPTLRWLKNGKEFKPDHRIGGYKVRYATWSIIMDSVVPSDKGNYTCIVENEYGSINHTYQLDVVERSPHRPILQAGLPANKTVALGSNVEFMCKVYSDPQPHIQWLKHIEVNGSKIGPDNLPYVQILKTAGVNTTDKEMEVLHLRNVSFEDAGEYTCLAGNSIGLSHHSAWLTVLEALEER
As to B1, the binding result in assay [1] is listed as “binds”.

B2: C-terminal tail peptide of human FGF19 (M171 to K216 of SEQ ID NO: 1), fused to a 50 residue-long N-terminal tag including a hexahistidine tag (peptide)
peptide: MVPEEPEDLRGHLESDMFSSPLETDSMDPFGLVTGLEAVRSPSFEK
notes: Expressed in E. coli and purified from the soluble lysate fraction; also called FGF19^C-tail; FGF19 C-terminal tail peptide; not shown: 50 residue-long N-terminal tag including a hexahistidine tag
B2: the binding result in assay [2] is recorded as “binds”.

B3: FGF21^29-167/FGF19^169-216 chimera (H29 to L167 of human FGF21 and L169 to K216 of human FGF19; SEQ ID NO: 207) (ligand)
chain: HPIPDSSPLLQFGGQVRQRYLYTDDAQQTEAHLEIREDGTVGGAADQSPESLLQLKALKPGVIQILGVKTSRFLCQRPDGALYGSLHFDPEACSFRELLLEDGYNVYQSEAHGLPLHLPGNKSPHRDPAPRGPARFLPLLPMVPEEPEDLRGHLESDMFSSPLETDSMDPFGLVTGLEAVRSPSFEK
Take B3: the “Induction of Egr1 protein expression (immunoblot, HEK293 cells co-expressing FGFR1c and βKlotho)” value in assay [3] was 10 fold lower concentration than native FGF21.

B4: FGF21^29-190/FGF19^197-216 chimera (H29 to S190 of human FGF21 and M197 to K216 of human FGF19; SEQ ID NO: 206) (ligand)
chain: HPIPDSSPLLQFGGQVRQRYLYTDDAQQTEAHLEIREDGTVGGAADQSPESLLQLKALKPGVIQILGVKTSRFLCQRPDGALYGSLHFDPEACSFRELLLEDGYNVYQSEAHGLPLHLPGNKSPHRDPAPRGPARFLPLPGLPPALPEPPGILAPQPPDVGSMDPFGLVTGLEAVRSPSFEK
notes: Chimera of human FGF21 and human FGF19, purified from E. coli inclusion bodies; also called FGF21^C-tail variant 19-45
In the case of B4, the binding result in assay [4] and in assay [5] was “binds” throughout.

B5: Y207F single mutant of human FGF21 (SEQ ID NO: 232) (ligand)
chain: HPIPDSSPLLQFGGQVRQRYLYTDDAQQTEAHLEIREDGTVGGAADQSPESLLQLKALKPGVIQILGVKTSRFLCQRPDGALYGSLHFDPEACSFRELLLEDGYNVYQSEAHGLPLHLPGNKSPHRDPAPRGPARFLPLPGLPPALPEPPGILAPQPPDVGSSDPLSMVGPSQGRSPSFAS
notes: It was purified by the same protocol as the wild-type protein, which was H29 to S209; also called Y207F mutant of FGF21; single mutant FGF21
Turning to B5, the binding result in assay [6] is “binds”.

Source of the values: patent publication US20130231277A1 (NEW YORK UNIVERSITY, published 2013).
